{"source": "the RNAGym collection of RNA variant scans (doi:10.1073/pnas.2313332121)", "parents": {"B1": {"name": "TPR t1 (parent)", "chain": "GACCAAUCUGCCCUCAGAGCUCGAGAACAUCUUCGGAUGCAGAGGAGGCAGGCUUCGGUGGCGCGAUAGCGCCAACGUCCUCAACCUCCAAUGCAUCCCACCACAUGAUGAUGCCUGAAGAGCCUUGGUUUUUUG"}}}
{"variants_of": "B1", "assay": "polymerase ribozyme fitness, log enrichment relative to wild type (log ratio); higher = more active; in vitro selection for triplet polymerase activity", "summary_of_the_method": "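After PCR construction and transcription, each subunit's mutant library from a heterodimeric triplet polymerase ribozyme was annealed with a biotinylated primer, the partner subunit and triplets. Incubation was frozen, at −7 °C, and extended constructs were gel-excised, bound to streptavidin beads and amplified by RT-PCR, in one selection round done in triplicate. Fitness is the logarithm of a genotype's enrichment divided by that of the wild type, from inverse-variance-weighted replicate averages of Illumina-sequenced inputs and outputs. The base of the logarithm is 2, and genotypes needed ≥10 input reads and ≥1 read per output.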"}
{"variant": "C40U A105C", "polymerase ribozyme fitness (log ratio)": -3.68}
{"variant": "G44A A68G U112A", "polymerase ribozyme fitness (log ratio)": -3.21}
{"variant": "C72G C79G", "polymerase ribozyme fitness (log ratio)": -1.67}
{"variant": "G36A C85A G117A", "polymerase ribozyme fitness (log ratio)": -3.37}
{"variant": "U38G U78A", "polymerase ribozyme fitness (log ratio)": -0.0381}
{"variant": "G44A C49U U54G C70A U112G", "polymerase ribozyme fitness (log ratio)": -6.09}
{"variant": "C20A G77U", "polymerase ribozyme fitness (log ratio)": -3.11}
{"variant": "A74U U109C", "polymerase ribozyme fitness (log ratio)": -4.13}
{"variant": "A2U G57C C82U C98U", "polymerase ribozyme fitness (log ratio)": -3.78}
{"variant": "C40U C70A", "polymerase ribozyme fitness (log ratio)": -1.93}
{"variant": "A2G C62A C104U", "polymerase ribozyme fitness (log ratio)": -0.429}
{"variant": "C8U A37G C56U C73G G110U A119U", "polymerase ribozyme fitness (log ratio)": -3.74}
{"variant": "G47C U125G", "polymerase ribozyme fitness (log ratio)": -3.03}
{"variant": "U109A G110U", "polymerase ribozyme fitness (log ratio)": -3.28}
{"variant": "C49U C72G C89U", "polymerase ribozyme fitness (log ratio)": -1.07}
{"variant": "U92C C101U C104U", "polymerase ribozyme fitness (log ratio)": -0.793}
{"variant": "C97A A111U", "polymerase ribozyme fitness (log ratio)": -5.77}
{"variant": "A26U C114A", "polymerase ribozyme fitness (log ratio)": -3.87}
{"variant": "A6G U112G C114G A119G U131C", "polymerase ribozyme fitness (log ratio)": -5.15}
{"variant": "C94U U131A", "polymerase ribozyme fitness (log ratio)": -0.362}
{"variant": "A5U A18C G57U", "polymerase ribozyme fitness (log ratio)": -2.21}
{"variant": "C8A G120A", "polymerase ribozyme fitness (log ratio)": 1.88}
{"variant": "A6U A43U G63C G113U", "polymerase ribozyme fitness (log ratio)": -3.4}
{"variant": "C73U G120C", "polymerase ribozyme fitness (log ratio)": 1.2}
{"variant": "A100U U116C", "polymerase ribozyme fitness (log ratio)": -2.35}
{"variant": "C8G A24G C124U U126G", "polymerase ribozyme fitness (log ratio)": -2.55}
{"variant": "C8G A43U U54C C114A A118G", "polymerase ribozyme fitness (log ratio)": -4.79}
{"variant": "C11U U78A C97A", "polymerase ribozyme fitness (log ratio)": -5.69}
{"variant": "A29U C82A", "polymerase ribozyme fitness (log ratio)": -2.3}
{"variant": "G71U C101G U106G", "polymerase ribozyme fitness (log ratio)": -3.61}
{"variant": "A6U C20A G61U U125G", "polymerase ribozyme fitness (log ratio)": -2.23}
{"variant": "C34U G113A C115A U132A", "polymerase ribozyme fitness (log ratio)": -6.07}
{"variant": "G48U A118G U125G", "polymerase ribozyme fitness (log ratio)": -2.75}
{"variant": "C11U G39U C102A C104U A111G", "polymerase ribozyme fitness (log ratio)": -1.71}
{"variant": "G10U C20A A50C C102A C114U", "polymerase ribozyme fitness (log ratio)": -6.03}
{"variant": "C80U C102A", "polymerase ribozyme fitness (log ratio)": -2.21}
{"variant": "C34A C72U U116G", "polymerase ribozyme fitness (log ratio)": -5.21}
{"variant": "A18G C123U", "polymerase ribozyme fitness (log ratio)": -1.44}
{"variant": "C8G U126C", "polymerase ribozyme fitness (log ratio)": -0.307}
{"variant": "G61A U78C A95C C123A", "polymerase ribozyme fitness (log ratio)": 0.138}
{"variant": "C11G G19A U38G", "polymerase ribozyme fitness (log ratio)": -2.63}
{"variant": "U9G G110C", "polymerase ribozyme fitness (log ratio)": -4.11}
{"variant": "A26U G42U G69C C72A C79U G110C", "polymerase ribozyme fitness (log ratio)": -7.46}
{"variant": "G23U C72G", "polymerase ribozyme fitness (log ratio)": -6.36}
{"variant": "G48U A91U C123U G127U", "polymerase ribozyme fitness (log ratio)": -2.98}
{"variant": "C101G U112A U116A U126A G127U", "polymerase ribozyme fitness (log ratio)": -2.86}
{"variant": "C72U C89G G113C", "polymerase ribozyme fitness (log ratio)": -3.26}
{"variant": "C15U C73U", "polymerase ribozyme fitness (log ratio)": -1.36}
{"variant": "G42C C62U U131C", "polymerase ribozyme fitness (log ratio)": -1.44}
{"variant": "A16U C79G", "polymerase ribozyme fitness (log ratio)": -2.59}
{"variant": "A41C G61C G93C", "polymerase ribozyme fitness (log ratio)": -4.23}
{"variant": "G36C G110A", "polymerase ribozyme fitness (log ratio)": -1.62}
{"variant": "C99U A119G", "polymerase ribozyme fitness (log ratio)": -1.65}
{"variant": "U54G A91C G113U A121C", "polymerase ribozyme fitness (log ratio)": -2.85}
{"variant": "G10A C13G G69A U78C", "polymerase ribozyme fitness (log ratio)": -3.65}
{"variant": "C22U G61A", "polymerase ribozyme fitness (log ratio)": -3.53}
{"variant": "A16U C53G U96G U112A G128C", "polymerase ribozyme fitness (log ratio)": -3.45}
{"variant": "C11U A41U C62U C85A C102U C114G G120C", "polymerase ribozyme fitness (log ratio)": -6.27}
{"variant": "A6G C72G C89U", "polymerase ribozyme fitness (log ratio)": -0.661}
{"variant": "C12G U14C C62U C85U C86U", "polymerase ribozyme fitness (log ratio)": -1.07}
{"variant": "G48C G60U C86A C94U U106C G117C", "polymerase ribozyme fitness (log ratio)": -6.53}
{"variant": "G48U A105U", "polymerase ribozyme fitness (log ratio)": -2.27}
{"variant": "C49G A90C U126C", "polymerase ribozyme fitness (log ratio)": -3.39}
{"variant": "C12U A46G C56A A105U", "polymerase ribozyme fitness (log ratio)": -1.73}
{"variant": "C73A G77A", "polymerase ribozyme fitness (log ratio)": -0.332}
{"variant": "C70U C98U U129G", "polymerase ribozyme fitness (log ratio)": -2.67}
{"variant": "G60U G61A U106C G128A U130A", "polymerase ribozyme fitness (log ratio)": -4.75}
{"variant": "C15G A29G C88G U129A", "polymerase ribozyme fitness (log ratio)": -3.95}
{"variant": "G39A G57A G60C C101A G113C", "polymerase ribozyme fitness (log ratio)": -6.12}
{"variant": "A2C G42A A46G G69U C115G", "polymerase ribozyme fitness (log ratio)": -4.92}
{"variant": "U81G U125A", "polymerase ribozyme fitness (log ratio)": -3.53}
{"variant": "C8G C11G U96A", "polymerase ribozyme fitness (log ratio)": -0.26}
{"variant": "C101U U106C A111C", "polymerase ribozyme fitness (log ratio)": -0.324}
{"variant": "G19C C20U C40A G61A U87A U112A", "polymerase ribozyme fitness (log ratio)": -5.56}
{"variant": "C11G G63A", "polymerase ribozyme fitness (log ratio)": -0.354}
{"variant": "G61C C97A C124G", "polymerase ribozyme fitness (log ratio)": -5.48}
{"variant": "A5U G52U U54A", "polymerase ribozyme fitness (log ratio)": -1.51}
{"variant": "C34G U54G G69U", "polymerase ribozyme fitness (log ratio)": -5.25}
{"variant": "C22U C53G G61A U106A A118G", "polymerase ribozyme fitness (log ratio)": -5.66}
{"variant": "G47U C94U U106G G117U G120A", "polymerase ribozyme fitness (log ratio)": -5.71}
{"variant": "C64U U96C", "polymerase ribozyme fitness (log ratio)": -0.0442}
{"variant": "C8A C12U A90U G117C", "polymerase ribozyme fitness (log ratio)": -0.863}
{"variant": "A18G G39U C53U G71A G120A", "polymerase ribozyme fitness (log ratio)": -4.4}
{"variant": "G19U C20G G57U C70G C85U C101U U112G", "polymerase ribozyme fitness (log ratio)": -6.53}
